Sequences and labels used below:
B1: Pistol ribozyme (parent)
chain: GGGUCGUUGUUCCAUAAUCGCGUGGAUAUGGCACGCAAGUUUCUACCGGGCACCGUAAAUGUCCGACUGGAGCCGUUCGGGCGGCUAUAAACAGACCUCAGGCCCGAAGCGUGGCGGCACCUGCCGCCGGUGGUAAAAAAGAUCGGAAGAGCACACGUCU

In the data set the parent is B1. The experiment in a line: aptazyme ON/OFF ratio, guanine; higher = stronger switching; co-transcriptional cleavage with and without guanine.
Consider U7G U8G U10A U11A C12A, for which the “aptazyme ON/OFF ratio” value amounted to 1.13.
As for U7G U8G U10A U11A C12U, the figure is 1.25; as for U7G U8G U10A U11A C12G, 1.22.
Then U7G U8G U10A U11A C13U, with 1.35; and U7G U8G U10A U11A C13A, with 1.33; and U7G U8G U10A U11A C13G, with 1.21.
As for U7G U8G G9U U11G, the figure is 2.02.
Turning to U7G U8G G9U U11A, the “aptazyme ON/OFF ratio” value turned out to be 2.18.
As for U7G U8G G9U U11C, the figure is 3.17; as for U7G U8G U10A U11C C13U, 1.08.
Take U7G U8G U10A U11C C13A: the “aptazyme ON/OFF ratio” value was found to be 1.27.
As for U7G U8G U10A U11C C13G, the figure is 1.25; as for U7G U8G U10A U11G C13U, 1.33; as for U7G U8G U10A U11G C13G, 1.18.
U7G U8G U10A U11G C13A: the “aptazyme ON/OFF ratio” value was determined as 1.18.
As for U7G U10A C13A, the figure is 1.13.
As to U7G U10A C13G, the “aptazyme ON/OFF ratio” value was 1.12.
As for U7G U10A C13U, the figure is 1.16; as for U7G U8G U10A U11C C12G C13U, 1.29; as for U7G U8G U10A U11C C12G C13G, 1.11.
As for U7G U8G U10A U11C C12G C13A, the figure is 1.16; as for U7G U8G U11C C12G C13U, 1.33.
Then U7G U8G U11C C12G C13G, with 1.23.
As for U7G U8G U11C C12G C13A, the “aptazyme ON/OFF ratio” value is 1.33.
Then U7G U10A U11C C12A, with 1.16; and U7G U8G U11G C12U, with 1.25.
With U7G U8G U11G C12G, the “aptazyme ON/OFF ratio” value is 1.28.
As for U7G U8G U11G C12A, the figure is 1.42; as for U7G U8G U10A C12U C13G, 1.18.
As for U7G U8G U10A C12U C13U, the figure is 1.09; as for U7G U8G U10A C12U C13A, 1.16; as for U7G U8G U10G U11G C12U C13U, 1.32.
As for U7G U8G U10G U11G C12U C13G, the “aptazyme ON/OFF ratio” value worked out at 1.13.
Regarding U7G U8G U10G U11G C12U C13A, the “aptazyme ON/OFF ratio” value was 1.13.
In the case of U7G U8G G9U U11A C13A, the “aptazyme ON/OFF ratio” value turned out to be 1.33.
For the variant U7G U8G G9U U11A C13U, the “aptazyme ON/OFF ratio” value is 1.38.
Then U7G U8G G9U U11A C13G, with 1.09; and U7G U8G U10A C13U, with 1.36.
As for U7G U8G U10A C13A, the figure is 1.34.
For the variant U7G U8G U10A C13G, the “aptazyme ON/OFF ratio” value came out at 1.29.
As for U7G U8G U10G C12G C13G, the figure is 1.32.
As for U7G U8G U10G C12G C13U, the figure is 1.26; as for U7G U8G U10G C12G C13A, 1.21.
As for U7G U8G G9U U11C C12A C13A, the figure is 1.23; as for U7G U8G G9U U11C C12A C13U, 1.23; as for U7G U8G G9U U11C C12A C13G, 1.15.
Turning to U7G U8G U10A C12G C13U, the “aptazyme ON/OFF ratio” value came out at 0.978.
As for U7G U8G U10A C12G C13A, the figure is 1.16; as for U7G U8G U10A C12G C13G, 1.2; as for U7G U8G U11C C13G, 1.27.
As for U7G U8G U11C C13A, the figure is 1.41; as for U7G U8G U11C C13U, 1.25; as for U7G U8G G9U U10G U11G C12G C13U, 1.14.
As for U7G U8G G9U U10G U11G C12G C13A, the figure is 1.09.
Turning to U7G U8G G9U U10G U11G C12G C13G, the “aptazyme ON/OFF ratio” value is 1.06.
As for U7G U8G U10G U11A C13A, the figure is 1.21; as for U7G U8G U10G U11A C13G, 1.18.
As for U7G U8G U10G U11A C13U, the figure is 1.24.
Then U7G U8G U10G U11G C12G, with 1.26; and U7G U8G U10G U11G C12U, with 1.36; and U7G U8G U10G U11G C12A, with 1.23.
U7G U10A C12U C13A: the “aptazyme ON/OFF ratio” value came to 1.2.
Then U7G U10A C12U C13U, with 1.25.
Then U7G U10A C12U C13G, with 1.22.
As for U7G U10A U11C, the “aptazyme ON/OFF ratio” value came out at 1.
Consider U7G U10A U11A, for which the “aptazyme ON/OFF ratio” value amounted to 2.39.
Then U7G U8G G9U U11C C12U C13U, with 1.33; and U7G U8G G9U U11C C12U C13A, with 1.35; and U7G U8G G9U U11C C12U C13G, with 1.38.
Then U7G U10A, with 1.18; and U7G U8G U10C U11A C12U C13G, with 1.37.
As for U7G U8G U10C U11A C12U C13A, the figure is 1.37; as for U7G U8G U10C U11A C12U C13U, 1.31.
Turning to U7G U8G U10G U11A C12U, the “aptazyme ON/OFF ratio” value amounted to 1.36.
As for U7G U8G U10G U11A C12G, the figure is 1.43; as for U7G U8G U10G U11A C12A, 1.18.
Then U7G U8G G9U U11G C12U C13U, with 1.27.
As for U7G U8G G9U U11G C12U C13G, the figure is 1.2; as for U7G U8G G9U U11G C12U C13A, 1.07; as for U7G U8G U10C U11C C12U C13U, 1.4.
For U7G U8G U10C U11C C12U C13G, the “aptazyme ON/OFF ratio” value came to 1.34.
Then U7G U8G U10C U11C C12U C13A, with 1.29.
Then U7G U8G U10G U11C C12G C13G, with 1.25.

These data come from the RNAGym collection of RNA variant scans (doi:10.1021/acssynbio.7b00057).
